In paper PMC5655137:

Molecular target: E. coli small ribosomal 30S subunit (E. coli (MRE600)) (UniProt P0AG67)

Chain of E. coli RNA polymerase core complex (P0A7Z4 whole entry): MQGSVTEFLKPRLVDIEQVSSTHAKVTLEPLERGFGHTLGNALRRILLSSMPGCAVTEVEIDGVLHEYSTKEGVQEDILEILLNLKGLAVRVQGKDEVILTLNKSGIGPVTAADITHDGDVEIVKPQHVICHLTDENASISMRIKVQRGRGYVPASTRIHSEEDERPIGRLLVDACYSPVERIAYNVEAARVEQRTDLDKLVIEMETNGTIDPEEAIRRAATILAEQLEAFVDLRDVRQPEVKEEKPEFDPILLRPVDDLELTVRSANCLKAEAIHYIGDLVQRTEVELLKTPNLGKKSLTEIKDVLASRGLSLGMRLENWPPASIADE
Chain of E. coli RNA polymerase core complex (P0A8V2 2-1341): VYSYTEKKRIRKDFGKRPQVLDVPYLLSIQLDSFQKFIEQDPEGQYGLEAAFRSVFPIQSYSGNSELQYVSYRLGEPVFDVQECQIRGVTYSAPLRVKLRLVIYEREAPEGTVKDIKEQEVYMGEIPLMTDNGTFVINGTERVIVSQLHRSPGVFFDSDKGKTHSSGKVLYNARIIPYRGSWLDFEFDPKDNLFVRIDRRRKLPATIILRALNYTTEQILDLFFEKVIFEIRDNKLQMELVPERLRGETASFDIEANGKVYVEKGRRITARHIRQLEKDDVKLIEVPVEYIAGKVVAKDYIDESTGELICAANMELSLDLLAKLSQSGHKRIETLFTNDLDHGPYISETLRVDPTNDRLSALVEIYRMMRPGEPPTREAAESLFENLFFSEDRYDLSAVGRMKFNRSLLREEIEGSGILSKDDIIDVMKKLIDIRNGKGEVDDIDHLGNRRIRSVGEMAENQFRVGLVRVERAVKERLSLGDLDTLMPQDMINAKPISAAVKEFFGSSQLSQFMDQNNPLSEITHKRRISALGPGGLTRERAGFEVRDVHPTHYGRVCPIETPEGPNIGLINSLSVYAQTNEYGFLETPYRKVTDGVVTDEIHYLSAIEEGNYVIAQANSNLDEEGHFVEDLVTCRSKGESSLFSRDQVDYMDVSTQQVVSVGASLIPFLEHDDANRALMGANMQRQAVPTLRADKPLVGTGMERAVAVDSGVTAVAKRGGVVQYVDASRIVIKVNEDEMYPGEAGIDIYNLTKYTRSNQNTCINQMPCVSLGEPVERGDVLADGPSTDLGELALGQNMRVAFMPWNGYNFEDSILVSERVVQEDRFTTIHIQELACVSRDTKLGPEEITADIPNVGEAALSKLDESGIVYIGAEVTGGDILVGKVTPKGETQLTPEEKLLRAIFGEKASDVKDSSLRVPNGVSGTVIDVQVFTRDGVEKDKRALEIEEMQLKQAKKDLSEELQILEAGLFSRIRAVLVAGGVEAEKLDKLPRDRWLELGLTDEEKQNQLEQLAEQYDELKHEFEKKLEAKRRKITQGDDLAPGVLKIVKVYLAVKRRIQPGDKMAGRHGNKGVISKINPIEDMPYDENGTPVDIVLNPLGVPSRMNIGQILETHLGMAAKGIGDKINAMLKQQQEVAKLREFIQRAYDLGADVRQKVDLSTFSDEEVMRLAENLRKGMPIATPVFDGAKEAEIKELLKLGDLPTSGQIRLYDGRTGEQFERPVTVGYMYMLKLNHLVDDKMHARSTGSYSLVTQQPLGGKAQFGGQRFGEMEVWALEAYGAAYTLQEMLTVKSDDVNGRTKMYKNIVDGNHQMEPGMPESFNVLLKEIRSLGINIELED
Chain of E. coli RNA polymerase core complex (P0A8T7 8-1376): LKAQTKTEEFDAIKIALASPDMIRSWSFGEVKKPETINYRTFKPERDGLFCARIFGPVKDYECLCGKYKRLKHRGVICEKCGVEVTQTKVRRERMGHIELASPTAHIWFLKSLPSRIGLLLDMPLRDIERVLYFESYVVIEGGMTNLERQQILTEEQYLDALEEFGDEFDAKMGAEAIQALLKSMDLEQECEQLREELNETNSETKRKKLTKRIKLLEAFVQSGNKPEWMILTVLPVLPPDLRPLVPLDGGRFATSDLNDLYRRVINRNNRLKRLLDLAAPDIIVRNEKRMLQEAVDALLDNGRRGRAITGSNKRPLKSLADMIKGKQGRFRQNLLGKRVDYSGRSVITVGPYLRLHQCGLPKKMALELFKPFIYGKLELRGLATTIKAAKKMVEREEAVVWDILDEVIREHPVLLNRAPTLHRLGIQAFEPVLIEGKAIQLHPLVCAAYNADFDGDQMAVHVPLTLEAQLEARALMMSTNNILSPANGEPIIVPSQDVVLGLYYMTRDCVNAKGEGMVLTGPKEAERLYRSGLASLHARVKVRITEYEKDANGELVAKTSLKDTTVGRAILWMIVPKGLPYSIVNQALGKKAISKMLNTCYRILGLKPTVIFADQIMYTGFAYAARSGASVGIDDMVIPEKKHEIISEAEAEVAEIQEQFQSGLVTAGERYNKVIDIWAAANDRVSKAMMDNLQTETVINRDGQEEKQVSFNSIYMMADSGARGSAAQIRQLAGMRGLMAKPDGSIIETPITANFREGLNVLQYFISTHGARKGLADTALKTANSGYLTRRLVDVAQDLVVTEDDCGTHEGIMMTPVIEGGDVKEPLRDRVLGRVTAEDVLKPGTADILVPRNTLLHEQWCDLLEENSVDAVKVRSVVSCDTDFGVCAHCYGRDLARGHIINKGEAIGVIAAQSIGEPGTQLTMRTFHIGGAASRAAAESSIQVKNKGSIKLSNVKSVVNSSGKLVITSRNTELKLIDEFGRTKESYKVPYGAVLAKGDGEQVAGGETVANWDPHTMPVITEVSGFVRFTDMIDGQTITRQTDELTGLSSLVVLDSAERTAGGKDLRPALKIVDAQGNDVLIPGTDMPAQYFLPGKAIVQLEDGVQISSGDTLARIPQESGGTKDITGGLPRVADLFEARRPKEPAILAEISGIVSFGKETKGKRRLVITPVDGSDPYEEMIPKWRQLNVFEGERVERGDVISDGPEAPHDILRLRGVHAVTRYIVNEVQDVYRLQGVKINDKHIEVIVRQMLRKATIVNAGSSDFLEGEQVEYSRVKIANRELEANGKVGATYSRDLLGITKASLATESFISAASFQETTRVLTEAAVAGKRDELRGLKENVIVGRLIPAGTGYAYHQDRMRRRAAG
Chain of E. coli RNA polymerase core complex (P0A800 whole entry): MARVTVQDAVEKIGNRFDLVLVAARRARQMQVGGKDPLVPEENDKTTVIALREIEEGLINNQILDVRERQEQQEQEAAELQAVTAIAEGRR

Substance: E. coli RNA polymerase core complex (from UniProt P0A7Z4 1-329; P0A8V2 2-1341; P0A8T7 8-1376; P0A800 1-91) (complex; C-terminal 6xHis tag on beta' omitted; Zn-bound beta' Zn-finger; core without sigma; K12 sequences assumed)
- Kd: 21 nM
